Results as given in FireProtDB (doi:10.1038/srep15545).

B1: Divalent-cation tolerance protein CutA, P69488 (parent)
chain: MLDEKSSNTASVVVLCTAPDEATAQDLAAKVLAEKLAACATLIPGATSLYYWEGKLEQEYEVQMILKTTVSHQQALLECLKSHHPYQTPELLVLPVTHGDTDYLSWLNASLR

Variants of: B1
Settings: Escherichia coli (strain K12), pH 9, Thermal, DSC, Glycine 50mM, reversible: yes, whole UniProt chain shown

| Variant | Tm (structure 1NAQ) [°C] | change of melting temperature, mutant - wild type (higher = more stable) (structure 1NAQ) [°C] | unfolding enthalpy (calorimetric) (structure 1NAQ) [kcal/mol] | Tm (structure 4Y65) [°C] | change of melting temperature, mutant - wild type (higher = more stable) (structure 4Y65) [°C] | unfolding enthalpy (calorimetric) (structure 4Y65) [kcal/mol] |
| --- | --- | --- | --- | --- | --- | --- |
| MLDEKSSNTASVVVLCTAPDEATAQDLAAKVLAEKLAACATLIPGATSLYYWEGKLEQEYEVQMILKTTVSHQQALLECLKRHHPYQTPELLVLPVTHGDTDYLSWLNASLR [S82R] | 117 | 31.5 | 346 |  |  |  |
| MLDEKSSNTASVVVLCTAPDEATAQDLAAKVLAEKLAACATLIPGATSLYYWEGKLEQEYEVQMILKTTVSHQQALLECLKKHHPYQTPELLVLPVTHGDTDYLSWLNASLR [S82K] | 117 | 31.3 | 353 |  |  |  |
| MLDEKSSNTASVVVLCTAPDEATAQDLAAKVLAEKLAACATLIPGATSLYYWEGKLEQEYEVQMILKTTVSHQQALLECLKSHHPYKRPELLVLPVTHGDTDYLSWLNASLR [Q87K T88R] | 122 | 36.8 | 378 |  |  |  |
| MLDEKSSNTAVVVVLCTAPDEATAQDLAAKVLAEKLAACATLIPGATSLYYWEGKLEQEYEVQMILKTTVSHQQALLECLKSHHPYQTPELLVLPVTHGDTDYLSWLNASLR [S11V] | 103 | 17.1 | 311 |  |  |  |
| MLDEKSSNTAVVVVLCTAPDEATAQDLAAKVLAEKLAACATLIPGATSLYYWEGKLEQEYVVQMILKTTVSHQQALLECLKSHHPYQTPELLVLPVTHGDTDYLSWLNASLR [S11V E61V] | 113 | 27.6 | 375 |  |  |  |
| MLDEKSSNTASVVVLCTAPDEATAQDLAAKVLAEKLAACATLIPGATSLYYWEGKLEQEYEVQMILKTTVSHQQALLECLKSHHPYQTPELLVLPVTHGDTDYLSWLNARLR [S110R] | 117 | 31.7 | 391 |  |  |  |
| MLDEKSSNTASVVVLCTAPDEATAQDLAAKVLAEKLAACATLIPGATSLYYWEGKLEQEYVVQMILKTTVSHQQALLECLKSHHPYQTPELLVLPVTHGDTDYLSWLNASLR [E61V] | 101 | 15.4 | 293 |  |  |  |
| MLDEKSSNTASVVVLCTAPDEATAQDLAAKVLAEKLAACATLIPGATSLYYWEGKLEQEYEVQMILKTTVSKQQALLECLKSHHPYQTPELLVLPVTHGDTDYLSWLNASLR [H72K] | 118 | 32.8 | 364 |  |  |  |
| MLDEKSSNTASVVVLCTAPDEATAQDLAAKVLAEKLAACATLIPGATSLYYWEGKLEQEYEVQMILKTTVSHQQALLECLKSHHPYKTPELLVLPVTHGDTDYLSWLNASLR [Q87K] | 117 | 31.2 | 340 |  |  |  |
| MLDEKSSNTASVVVLCTAPDEATAQDLAAKVLAEKLAACATLIPGATKLYYWEGKLEQEYEVQMILKTTVSHQQALLECLKSHHPYQTPELLVLPVTHGDTDYLSWLNASLR [S48K] | 112 | 26.6 | 280 | 118 | 32.7 | 337 |
| MLDEKSSNTASVVVLCKAPDEATAQDLAAKVLAEKLAACATLIPGATSLYYWEGKLEQEYEVQMILKTTVSHQQALLECLKSHHPYQTPELLVLPVTHGDTDYLSWLNASLR [T17K] | 107 | 21.6 | 314 |  |  |  |
| MLDEKSSNTASVVVLCTAPDEATAQDLAAKVLAEKLAADATLIPGATSLYYWEGKLEQEYEVQMILKTTVSHQQALLECLKSHHPYQTPELLVLPVTHGDTDYLSWLNASLR [C39D] |  |  |  | 105 | 19.8 | 286 |
| MLDEKSSNTASVVVLCTAPDEATAQDLAAKVLAEKLAACATLIPGATKLYYWEGKLEQEYEVQMILKTTVSKQQALLECLKKHHPYKRPELLVLPVTHGDTDYLSWLNASLR [S48K H72K S82K Q87K T88R] | 137 | 51.2 | 416 |  |  |  |
| MLDEKSSNTASVVVLCTAPDEATAQDLAAKVLAEKLAACATLIPGATSLYYWEGKLEQEYEVQMILKTTVSHQQALLECLKSHHPYQRPELLVLPVTHGDTDYLSWLNASLR [T88R] | 118 | 32 | 359 |  |  |  |
